Laboratory results taken from PMC4635203.

Tests used:
[1] = target: T1, LUZ24 gp4 (Mip) (Pseudomonas phage LUZ24) (UniProt A9J6U1); assay: EMSA
T1 sequence: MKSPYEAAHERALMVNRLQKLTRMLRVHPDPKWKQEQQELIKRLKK

[2] = target: T2, MvaT-His (Pseudomonas aeruginosa (PAO1?)) (UniProt Q9HW86); assay: EMSA
T2 sequence: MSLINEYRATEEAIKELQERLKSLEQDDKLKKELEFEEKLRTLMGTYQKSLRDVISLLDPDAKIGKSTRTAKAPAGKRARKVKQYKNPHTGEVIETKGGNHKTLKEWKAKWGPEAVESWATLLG

[3] = target: LUZ24 gp4 (yeast two-hybrid bait) (Pseudomonas aeruginosa phage LUZ24); assay: two-hybrid; alpha-galactosidase activity of the yeast two-hybrid pairs, in milliunits per ml per cell, for a relative comparison of interaction strengths

## CATGAGGCCAGGACGTTGTTCATGAAAACCGAATAATCGTTTCGAATGATGGTTTGCAATTATTAATGTCGAATGGAATGAATGTGCCATATCTCCATAAATAAAAAGGAAGTTTGTCCAATACTTGAGAAACTACTTTAAGAAGGTTTTGTCGGTAGAAAGCGATCAATC (double strand) [ptxS upstream region 150 bp]
[1]
  binding: no binding
[2]
  binding: binds

B1: MvaT (PA4315) prey fragment, amino acids 1-80 (domain or fragment)
chain: MSLINEYRATEEAIKELQERLKSLEQDDKLKKELEFEEKLRTLMGTYQKSLRDVISLLDPDAKIGKSTRTAKAPAGKRAR
[3]
  α-Gal activity (milliunits per ml per cell): 23.1
